Measured values as given in publication PMC4904203.

Legend:
[1] = target: nTRIP6 fused to the C-terminal half of Venus (VC); test: split reporter (BiFC, NanoBiT); Venus BiFC: VN and VC fusions co-transfected into C2C12 myoblasts with mCherry as transfection control; confocal imaging 24 h after transfection; cells with Venus complementation counted as percent of mCherry-positive cells (mean ± SD, three experiments); for Fig. 6a cells were first transfected with Trip6 siRNA or control siRNA; details: scale: %
[2] = target: MEF2C fused to the C-terminal half of Venus (VC) (UniProt Q8CFN5); test: as above
UniProt Q8CFN5, sequence (Q8CFN5 whole entry, the tested form may be a part): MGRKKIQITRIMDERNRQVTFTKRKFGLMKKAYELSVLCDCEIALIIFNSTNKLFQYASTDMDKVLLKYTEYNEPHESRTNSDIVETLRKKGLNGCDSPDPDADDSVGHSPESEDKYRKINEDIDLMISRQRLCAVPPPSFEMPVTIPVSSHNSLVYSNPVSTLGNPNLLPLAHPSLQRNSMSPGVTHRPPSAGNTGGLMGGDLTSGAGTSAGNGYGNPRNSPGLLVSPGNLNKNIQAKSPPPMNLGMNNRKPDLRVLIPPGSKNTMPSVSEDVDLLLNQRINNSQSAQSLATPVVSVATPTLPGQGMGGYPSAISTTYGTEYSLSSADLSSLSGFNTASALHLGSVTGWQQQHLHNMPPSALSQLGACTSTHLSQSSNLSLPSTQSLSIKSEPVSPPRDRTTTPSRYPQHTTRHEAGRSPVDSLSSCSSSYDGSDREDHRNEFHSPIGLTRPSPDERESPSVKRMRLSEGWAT

percent of transfected cells with Venus complementation [1]	percent of transfected cells with Venus complementation [2] [%]	Substance
79.5	–	HDAC5-Flag fused to the N-terminal half of Venus (VN) (from UniProt Q9UQL6 1-1122) (enzyme)
–	70.6	nTRIP6 (nuclear isoform of TRIP6) fused to the N-terminal half of Venus (VN) (natural protein)
–	65.5	nTRIP6 lacking the LIM domains (pre-LIM) fused to VN (domain or fragment)
